The values below come from article PMC12671567 (Cancer research, 2026).

B1: 31E6H8 (antibody, V domains shown)
VH: EVKLVESGGGLVQPGGSLSLSCAASGFTFTDYYMTWVRQPPGKALEWLGFIRNKANGYTTEYSASVKGRFTISRDNSQSILSLQMNALSAEDSATYYCASLVLRGFAYWGQGTLVTVSA
VL: not shown
B2: 56C3E6 (antibody, V domains shown)
VH: EVNLVESGGGLVQPGDSLSLSCATSGFTFTDYYMSWVRQPPGKALEWLGFIRNKANGYTTEYSASVKGRFTISRDNSQSILYLQMNALRPEDSATYYCASPVLRGFAYWGRGTLVTVSA
VL: DIQMTQSPASLSASVGETVTITCRASGNIHNYLAWYQQKQGKSPQLLVYNAKTLADGVPSRFSGSGSGTQYSLKINSLQPEDFGSYYCQHFWSTPFTFGSGTKLEIK
B3: 35G6G1 (antibody, V domains shown)
VH: EVKLVESGGGLVQPGGSLSLSCAASGFTFADYYMTWVRQPPGKALEWLGFIRNKANGFTTEYSASVKGRFTISRDNSQSILYLQMNALRAEDSATYYCARYGLRGFAYWGQGTLVTVSA
VL: DIVMTQSPSSLAMSVGQKVTLNCKSSQSLLNSSNQKNYLAWYQQKPGQSPKLLVYFASTRESGVPDRFIGSGSGTDFTLTISSVQAEDLADYFCHQHYSTPFTFGSGTKLEMK
B4: 36F7B3 (antibody, V domains shown)
VH: EVKLVESGGGLVQPGGSLSLSCAASGFTFTDYYMTWVRQPPGKALEWLCFIRNKANGYTTEYSASVKGRFTISRDNSQSILYLQVNALRAEDSATYYCATYVLRGLAYWGQGTLVTVSA
VL: not shown
B5: 66E8F8 (antibody, V domains shown)
VH: EVKLVESGGGLVQPGGSLSLSCAASGFTFTDYYMSWVRQPPGKALEWLCFIRNKANGYTTEYSASVKGRFTISRDNSQSILYLQVNALRAEDSATYYCATYVLRGLAYWGQGTLVTVSA
VL: not shown
B6: 35B3F9 (antibody, V domains shown)
VH: EVKLVESGGGLVQPGGSLRLSCAASGFTFTDYYMSWVRQPPGKALEWLGFIRNKVSGYTTDNSASVKGRFTISRDDSQSIVYLQMNDLRAEDSATYYCARYVSLWLLGYFDVWGTGTTVTVSS
VL: DVQITQSPSYLAASPGETITINCRASKSISKYLAWYQEKPGKTNKLLIYSGSTLQSGIPSRFSGSGSGTDFTLTISSLEPEDFAMYYCQQHNEYPLTFGTGTKLELK
B7: 68B1E2 (antibody, V domains shown)
VH: EVKLVESGGGLVQPGGSLSLSCAASGFTFTDYYMSWVRQPPGKALEWLGFIRNKASGYTTEYNASVKGRFTISRDNSQNILYLQMNALRAEDGATYYCVRYISLWLLGYFDVWGTGTTVTVSS
VL: DVQITQSPSYLAASPGETITINCRASKSISKYLAWYQEKPGKTNKLLIYSGSTLQSGIPSRFSGSGSGTDFTLTISSLEPEDFAMYYCQQHNDYPLTFGAGTKLELK
B8: 38D6A8 (antibody, V domains shown)
VH: EVKLVESGGGLVQPGGSLSLSCAASGFTFTDYYMSWVRQPPGKALEWLGFIRNKASGYTTEYSASVKGRFTISRDNSQNILYLQMNALRAEDGATYYCVRYISLWLLGYFDVWGTGTTVTVSS
VL: DVQITQSPSYLAASPGETITINCRASKSISKYLAWYQEKPGKTNKLLIYSGSTLQSGIPSRFSGSGSGTDFTLTISSLEPEDFAMYYCQQHNDYPLTFGAGTKLELK
B9: 73D4G2 (antibody, V domains shown)
VH: EVRLVESGGGLVQPGGSLRLSCAASGFTFTDYYMSWVRQPPGKALEWLGFIRNKPSGYTTEYSASVKGRFTISRDNSQSILYLQMNALRAEDSATYYCARYISLWLLGYLDVWGTGTTVTVSS
VL: DVQITQSPSYLAASPGETIIINCRTSKSISKYLAWYQEKPGKTNKLLIYSGSTLQSGIPSRFSGSGSGTDFTLTISSLEPEDFAMYYCQQHNEYPLTFGAGTKLELK
B10: 54C2F11 (antibody, V domains shown)
VH: EVRLVESGGGLVQPGGSLRLSCAASGFTFTDYYMSWVRQPPGKALEWLGFIRNKPSGYTTEYSASVKGRFTISRDNSQSILYLQMNALRAEDSATYYCARYISLWLLGYLDVWGTGTTVTVSS
VL: DVQITQSPSYLAASPGETIIINCRTSKSISKYLAWYQEKPGKTNKLLIYSGSTLQSGIPSRFSGSGSGTDFTLTISSLEPEDFAMYYCQQHNEYPLTFGAGTKLELN
B11: 48D6F4 (antibody, V domains shown)
VH: EVRLVESGGGLVQPGGSLRLSCAASGFTFTDYYMSWVRQPPGKALEWLGFIRNKPSGYTTEYSASVKGRFTFSRDNSQSILYLQMNALRAEDSATYYCARYISLWLLGYLDVWGTGTTVTVSS
VL: DVQITQSPSYLAASPGETIIINCRTSKSISKYLAWYQEKPGKTNNLLIYSGSTLQSGIPSRFSGSGSGTDFSLTISSLEPEDFAIYYCQQHNEYPLTFGAGTKLELN
B12: 22F1A9 (antibody, V domains shown)
VH: EVQLVESGGGLVKPGGSLKLSCAASGFTFSSYAMSWVRQTPEKRLEWVATISDGGSYTYYPDNVKGRFTISRDNTKNNLYLQMSHLKSEDTAMFYCARDLSPLYYRGPMDYWGQGTSVTVSS
VL: DIQMTQSPASLSASLGERVSLTCRASQDIGSSLNWLQQEPDGTIKRLIYATSSLDSGVPKRFSGSRSGSDYSLTISSLESEDFVDYYCLQYASSPFTFGSGTKLEIK
B13: 38B2G5 (antibody, V domains shown)
VH: QVQLQQSGAEVAKPGASVKLSCKASGYTFTSYWMHWVKQRPGQGLEWIGYINPSNNYTKYNQKFNDKATLTADKSSSTAYMQLSSLTYEDSALYYCARVYYYGNSPAWFAYWGQGTLVTVSA
VL: QIVLSQSPAILSASPGEKVTMTCRASSSVSYMHWYQQKPGSSPKPWIYATSNLASGVPARFSGSGSGTSYSLTISRVEAEDAATYYCQQWTSNPPTFGGGTKLEIK
B14: recombinant 68A11A1 antibody (IgG1 isotype), anti-Siglec-10 monoclonal antibody (antibody, V domains shown)
VH: EVKLVESGGGLVQPGGSLSLSCAASGFTFTDYYMSWVRQPPGKALEWLGFIRNKVSGYTTDYSSSVKGRFTFSRDNSQSIVYLHMNALRAEDSATYYCTRYVSLWLLGYFDVWGTGTTVTVSS
VL: DVQLTQSPSYLAASPGETITINCRTSKSISKYLAWYQEKPGKTNKLLIYSGSTLQSGIPSRFSGSGSGTDFTLTISSLEPEDFAMYYCQQHNEYPLTFGAGTKLELK

Chain of Siglec-5 antigen (recombinant Siglec-5 protein coated in ELISA) (O15389 17-551): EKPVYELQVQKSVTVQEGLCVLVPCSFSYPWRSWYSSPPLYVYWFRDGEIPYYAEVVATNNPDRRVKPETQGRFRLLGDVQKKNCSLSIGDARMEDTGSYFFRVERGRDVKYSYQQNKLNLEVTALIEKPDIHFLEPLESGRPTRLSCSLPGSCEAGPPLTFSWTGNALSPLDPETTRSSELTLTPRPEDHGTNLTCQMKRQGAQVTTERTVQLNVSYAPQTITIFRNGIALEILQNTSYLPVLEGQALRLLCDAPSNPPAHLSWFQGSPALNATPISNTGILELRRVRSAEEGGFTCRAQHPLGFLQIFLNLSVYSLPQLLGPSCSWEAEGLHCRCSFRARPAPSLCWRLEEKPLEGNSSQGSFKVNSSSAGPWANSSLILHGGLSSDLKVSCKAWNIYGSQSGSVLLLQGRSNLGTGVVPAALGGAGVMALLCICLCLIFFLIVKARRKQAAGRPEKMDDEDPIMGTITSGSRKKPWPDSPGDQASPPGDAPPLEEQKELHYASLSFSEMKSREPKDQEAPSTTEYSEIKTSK

The target of the first experiment is recombinant human Siglec-10 protein (Siglec-10 antigen coated in ELISA) (Homo sapiens (Human)., UniProt Q96LC7).
Chain of recombinant human Siglec-10 protein (Siglec-10 antigen coated in ELISA) (Q96LC7 17-550): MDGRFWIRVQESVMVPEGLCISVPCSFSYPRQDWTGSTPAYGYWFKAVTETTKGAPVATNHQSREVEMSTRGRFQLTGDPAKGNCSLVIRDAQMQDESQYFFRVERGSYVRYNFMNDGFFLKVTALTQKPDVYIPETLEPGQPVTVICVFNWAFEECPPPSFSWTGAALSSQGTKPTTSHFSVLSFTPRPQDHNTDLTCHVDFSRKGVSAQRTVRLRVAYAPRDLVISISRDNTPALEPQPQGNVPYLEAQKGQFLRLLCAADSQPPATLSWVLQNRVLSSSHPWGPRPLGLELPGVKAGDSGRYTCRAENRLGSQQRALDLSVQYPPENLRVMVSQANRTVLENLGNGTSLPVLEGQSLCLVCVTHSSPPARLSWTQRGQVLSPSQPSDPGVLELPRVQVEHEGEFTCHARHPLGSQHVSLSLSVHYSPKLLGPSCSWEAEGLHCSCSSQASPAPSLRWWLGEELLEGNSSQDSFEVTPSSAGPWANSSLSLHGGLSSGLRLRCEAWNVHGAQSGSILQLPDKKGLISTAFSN
Assay: not given
In the case of B1, the binding result is “binds”.
Still for that read-out and setting: as for B2, the entry is “binds”; as for B3, “binds”.
On the same count and under the same terms, to B4 belongs “binds”; to B5, “binds”; to B6, “binds”.
Regarding B7, the binding result is “binds”.
On the same count and under the same terms, as for B8, the entry is “binds”; as for B9, “binds”; as for B10, “binds”.
For the molecule B11, the binding result is “binds”.
Same read-out and setting: to B12 belongs “binds”; to B13, “binds”.

The next experiment has as its target Siglec-5 antigen (recombinant Siglec-5 protein coated in ELISA) (Homo sapiens (assumed), UniProt O15389). The experiment is described as follows: ELISA. On the technique in general: An ELISA detects its analyte on a solid surface through an enzyme-linked reagent.
Regarding B14, the binding result is “no binding”.
